From US20190144550A1

How the values were obtained:
[1] = biological target: wild-type EGFR expressed on cells (human), P00533; experiment: flow cytometry, A431 cells; conditions: remark: other sources report otherwise
[2] = biological target: wild-type EGFR expressed on cells (human), P00533; experiment: flow cytometry, F98-EGFRwt cells; conditions: remark: other sources report otherwise

B1: 34E7 (antibody, V domains shown)
VH: EVNLVESGGGLVKPGGSLRLSCEASGFTFSYAWMSWVRQAPGKGLEWVGRIKSINDGGATDYASPVRNRFTISRDDSRNMLYLEMHSLKTEDTAVYYCTTIPGNDAFDMWGQGTLVTVSS
VL: DIVLTQSPLSLSVTPGEPASISCRSTQSLLYSNGKNYLDWFLHKPGQSPQLLIFLGSIRASGVPDRFSGSGSGIDFILKISRVEAEDVGVYYCMQAQQTPITFGQGTRLEIK
% positive [1]: 1.1% | MFI [1]: 294 | MFI [2]: 371
